Assay results published in a protein production outcome set (Wang et al. 2014).

test: label from the status in PepcDB records
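Note: failed if final PepcDB status was selected cloned or expressed and not failed if soluble or beyond.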

Sequence	protein production
MKAPEGIACGKRQLVVSDTGGGRLLSYSIENGSVRGGTEIKAEQVPYPTKVQLTSKGEILVIDGKLRRIAHFSPEGSFAGYLDLKGVPAPATIAPRGIRVDDKDNIHILDIFGARVIVTDAAGTFQSQMPFPEGYRFISDLAVSASGTTLLLDSVASRVYAAARGETAFKPLTDGMKEYLQFPTSIATDKQGKIFILDQTGNAVVTLGQDGSFQGRQLNIGWKNSFLHYPSQLCISEENDIDVVIADRNNNRIQVFRVVRLEHHHHHH	failed
MKAPLVSIIIPVWNLWELTCACLDSIRAHTPGNAVEVIVVDNGSDDTTATALAPTGEGLFGARFRRIRLETNRGFAVACNLGAAKAQGTYLLLLNNDTVLSPGWLPPLLREFDDEPRTGAAGPLLVYPDSGRVQHCGIAFAPTLQTEHLYANFPATHPAVRARRTLQAITGAAMLLPTALFRQCGGFHEGYKNGCEDLELCCRIREQGLRLAVVPESLVAHHESRTPGRKEHDAANATLLNRRCSGCFGPDLHRHALRDGFAIALTPWLDTYLTLPPGREAALTREHITDFDPGRCWETLQGEPLWHGGYEMLCSILDEAGRHAESAGVRLLQAGFFPTLPGFRQLARSAALSGNDELARQAAEKMQHIGGILEDPEPLVTRARGLVRWARRAGEPAVEALYTGWLTDIGLSADDLEHHHHHH	not failed
MKAPRLIGAEIFRHSSYGRWHPLRVPRVSTVMDLSRAMGWLPPAQFITAPRAKPKALLAWHTADYIAALQRVEATQEATPHDTQRHDIGTVTNPVYPEIFRRPATAAGGSLLAGELLREGGIIYNPPGGTHHGMPDRANGFCYLNDPVLAMLSLRRNGVQRIAYVDIDAHHCDGVAAGFHGDPQCLMISVHEEGLWPRTGLLEDTAGGAGLNLPVPRGLNDTEMAYIRDRLILPQVEAFRPDAVVLLCGADGVEEDPLAHLCLSNNAHWAVTKALMGIAPRMLVLGGGGYNPWSVGRLWTGVWATLNGHDIPDRLPPEAQAVLRALRFEGNRRGKNPPEHWFTTLRDAPRPGPVRSDITDRVAELSRKAARLRLDH	failed
MKAVIVYASVHHGNTKKIAEAMASVISADVIDVTRKIKPDLSGYDVIGFASGVYFHTFHERIKKCIEENLFSKGQKVFLVATCGLGYRDYTKGIKDILAKKHVSFIGNFQCRGWDTYGIFGKIGGIAKKHPNDRDLKEAQQFVLKTVCEKTIDDVALLG	failed
MKAVRRQISRFSAHRWWSIVLKEFLQLRRDRVTFGMMIGIPIIQLLLFGFAINSDPRHMPTAVIVAEHSDFSRTFIAALDNTTYFKVVRTMPDEASGREALMRGDVQFVVSIPADFSRRLLHGDRPSILVEADATDPSATGQAIAALAQLPATVARIDLKGALAPLAGGQPAFDVNVHRLYNPEGITQYNIVPGLMGTILTMTMVMMTGLAMTRERERGTMENLLATPVQPLEVISGKIIPYIFIGLIQATIILLAAHFVFGVPFVGSPVAVYLAALLFIAANLTVGITLSSLAANQLQALQLTFFYFLPNILLSGFMFPFAGMPTWAQWIGNVLPMTYFNRMIRSIMLKGSGWIELWPNVWPVALFTVIVLTIAVRFYKRTLD	failed
MKAVVMAGGEGTRLRPMTANQPKPLLPVVNRPIMEHVLRLLKRHGFEDTVVTVQFLATLIRNYFGDGEELGMSLRYVAEEVPLGTAGSVKNAEEHLRGEPFIVISGDALTDIDLTDMVRFHRENGALVTIGLKRVANPLEFGIIIVDDNGRIQRFLEKPTWGQVFSDTVNTGIYIMEPEVLDHVAPGENVDWSGDVFPKLLKAGAPLYGYIADGYWEDVGTHESYLRAQADVLSGKVDVEIDGFEVSPGIWVAEGAEVDPEAVLKGPLYIGDYAKVEPGAELREFTVLGSNVVVRSEAFLHRAVVHDNVYVGTRANLRGCVVGKNTDIMAGVRIEEGTVVGEECVLESEAYLANNIKVYPFKTIEAGAVVNTNVIWESKGQRSLFGPRGVSGLINVEITPELAVRLASAYATTLKKGAVVTTARDASRAARTLKRAVISALTAAAINVQDLEATPLPLARFHTSQPGLSGGIALRTTPGDPQSVDIVFLDSSGADLSPAAQRKLERVFSRQEYRRAFPGEIAELSFPSRSVEAYTRELLQSIDLSGVAEANLKVVVDCAGGTGSLILPALLSQIDADVLTVNNRLDEASPTDTPAKRTRDLQRLGELVASARADFGVRFDPVGERIQLVDGSGTLVDDERALLVVLDLVAAERQGGRVALPVTTTRVAEQVANRHGVDVQWTPTSLDALTKAALADDIIFAADGRGGFILPEFSRTCDGIAAFVRLIGLVARTKMSLSQIDQRIPQAHLLRRSVPTPWAVKGSVMREVVEAAQGREIDTTDGVRVIEPDGSWALVLPDTAEAVTHLWAEGPDDETAQRLLEEWSAVVERAEG	failed
MKAYQNILVAIDGSGADDALIEQVSALAAPLGSRVHLLHVVHSHTIDQERALREQAGEFLERYRAAMQQQGIEAEVLIRSGEPDREILKEIEERRYDLLAMAAHGHRLFSRLLFGSVSRALRNKIDIPLLLVRGEAR	failed
